Source: PMC12554751 (Frontiers in Immunology, 2025)

Molecular target: T1, Aβ aggregates in human Alzheimer's disease brain (Homo sapiens (endogenous, Alzheimer's …, UniProt P05067))
T1 construct: Aβ peptide of the amyloid precursor protein, aggregated in patient brain; also called Alzheimer's brain lysates; Aβ plaques; source: endogenous, human Alzheimer's disease brain (hippocampus homogenates; paraffin-embedded frontal cortex sections)
Experiment: immunostaining of cells or tissue; immunohistochemistry of paraffin-embedded frontal cortex of Alzheimer's disease patients with moderate cerebral amyloid angiopathy; Digoxigenin-tagged antibody applied 1 h; HRP polymer, DAB
Conditions: one partner purified

binding result: binds
B1: 97A34 tagged with Digoxigenin (antibody, V domains shown)
VH: EVQLVESGGGLVQPGGSLRLSCAASGYNIKATYIHWVRQAPGKGLEWVARIYPASGATRYADSVKGRFTISADTSKNTAYLQMNSLRAEDTAVYYCARDGYDGSYFVGYDYNDFYDYWGQGTLVTVSS
VL: DIQMTQSPSSLSASVGDRVTITCRASQNVAYAVTWYQQKPGKAPKLLIYSASFLYSGVPSRFSGSRSGTDFTLTISSLQPEDFATYYCQQHSTYPPTFGQGTKVEIK
notes: heavy chain constant region; light chain constant region; Detected with a Human-on-Human HRP-Polymer kit through mouse anti-Digoxigenin; I surmise the human IgG1 kappa form
